Legend:
human 4-1BB = target: T1, human 4-1BB (human, UniProt Q07011 24-186, limits assumed); assay: BLI (Octet), binder on AHC sensor, 100 nM human antigen, 1:1 fit
T1 construct: Soluble antigen in Octet; construct not described

human EGFR [1] = target: T2, human EGFR (human, UniProt P00533 25-645, limits assumed); assay: as above
T2 construct: Soluble antigen in Octet; construct not described

human HER3 [2] = target: T3, human HER3 (human, UniProt P21860 20-643); assay: as above
T3 construct: Soluble antigen in Octet; bought; also called human HER3 (Acro ER3-H5223)

human CD3 [3] = target: T4, human CD3 (human, UniProt P07766 23-126; P04234 22-105); assay: as above
T4 construct: also called His-tagged human CD3; human CD3 (Acro CDD-H52W1)

human HER3 [4] = target: T3, human HER3; assay: BLI (Octet), binder on AHC sensor, 200 nM human HER3, 1:1 fit
human CD3 [5] = target: T4, human CD3; assay: BLI (Octet), binder on AHC sensor, 100 nM human CD3, 1:1 fit
human EGFR [6] = target: T2, human EGFR; assay: BLI (Octet), binder on AHC sensor, 200 nM human EGFR, 1:1 fit

| Binder | Kd (human 4-1BB) | Kd (human EGFR [1]) | Kd (human HER3 [2]) | Kd (human CD3 [3]) | Kd (human HER3 [4]) | Kd (human CD3 [5]) | Kd (human EGFR [6]) |
| --- | --- | --- | --- | --- | --- | --- | --- |
| SI-75E1 (other, tetra-miniGNC; D1 αEGFR, D2 αHER3, D3 αCD3 (Fab), D4 α4-1BB) chain 1: EIVLTQSPSTLSVSPGERATFSCRASQSIGTNIHWYQQKPGKPPRLLIKYASESISGIPDRFSGSGSGTEFTLTISSVQSEDFAVYYCQQNNNWPTTFGPGTKLTVLGGGGSGGGGSGGGGSGGGGSQVQLQQSGPGLVKPSETLSITCTVSGFSLTNYGVHWIRQAPGKGLEWLGVIWSGGNTDYNTPFTSRFTITKDNSKNQVYFKLRSVRADDTAIYYCARALTYYDYEFAYWGQGTLVTVSSGGGGSGGGGSEVQLVESGGGLVQPGGSLRLSCAASGFTISTNAMSWVRQAPGKGLEWIGVITGRDITYYASWAKGRFTISRDNSKNTLYLQMNSLRAEDTAVYYCARDGGSSAITSNNIWGQGTLVTVSSASTKGPSVFPLAPSSKSTSGGTAALGCLVKDYFPEPVTVSWNSGALTSGVHTFPAVLQSSGLYSLSSVVTVPSSSLGTQTYICNVNHKPSNTKVDKRVEPKSCDKTHTCPPCPAPEAAGGPSVFLFPPKPKDTLMISRTPEVTCVVVDVSHEDPEVKFNWYVDGVEVHNAKTKPREEQYNSTYRVVSVLTVLHQDWLNGKEYKCAVSNKALPAPIEKTISKAKGQPREPQVYTLPPSRDELTKNQVSLSCAVKGFYPSDIAVEWESNGQPENNYKTTPPVLDSDGSFFLVSKLTVDKSRWQQGNVFSCSVMHEALHNHYTQKSLSLSPGGGGGSGGGGSDVVMTQSPSSVSASVGDRVTITCQASQNIRTYLSWYQQKPGKAPKLLIYAAANLASGVPSRFSGSGSGTDFTLTISDLEPGDAATYYCQSTYLGTDYVGGAFGGGTKLTVLGGGGSGGGGSGGGGSGGGGSEVQLVESGGGLVQPGGSLRLSCTASGFTISSYHMQWVRQAPGKGLEYIGTISSGGNVYYASSARGRFTISRPSSKNTVDLQMNSLRAEDTAVYYCARDSGYSDPMWGQGTLVTVSS chain 2: QSALTQPASVSGSPGQSITISCTGTSSDVGGYNFVSWYQQHPGKAPKLMIYDVSDRPSGVSDRFSGSKSGNTASLIISGLQADDEADYYCSSYGSSSTHVIFGGGTKVTVLGGGGSGGGGSGGGGSGGGGSQVQLQESGGGLVKPGGSLSLSCAASGFTFSSYWMSWVRQAPGKGLEWVANINRDGSASYYVDSVKGRFTISRDDAKNSLYLQMNSLRAEDTAVYYCARDRGVGYFDLWGRGTLVTVSSGGGGSGGGGSDVVMTQSPSTLSASVGDRVTINCQASESISSWLAWYQQKPGKAPKLLIYEASKLASGVPSRFSGSGSGTEFTLTISSLQPDDFATYYCQGYFYFISRTYVNSFGGGTKVEIKRTVAAPSVFIFPPSDEQLKSGTASVVCLLNNFYPREAKVQWKVDNALQSGNSQESVTEQDSKDSTYSLSSTLTLSKADYEKHKVYACEVTHQGLSSPVTKSFNRGECGGDKTHTCPPCPAPEAAGGPSVFLFPPKPKDTLMISRTPEVTCVVVDVSHEDPEVKFNWYVDGVEVHNAKTKPREEQYNSTYRVVSVLTVLHQDWLNGKEYKCAVSNKALPAPIEKTISKAKGQPREPQVYTLPPSRDELTKNQVSLWCLVKGFYPSDIAVEWESNGQPENNYKTTPPVLDSDGSFFLYSKLTVDKSRWQQGNVFSCSVMHEALHNRFTQKSLSLSPG | 17.8 nM | 8.9 nM | 185 nM | 20.3 nM | – | – | – |
| SI-75X4 (other, tri-miniGNC; D1 αEGFR VHH, D2 αHER3 VHH, D3 αCD3 (Fab)) chain 1: EVQLQESGGGLVQAGDSLSLSCLVSGRSFNSYTMGWFRQAPGKEREFVAAILWSGPTTYYADSVKGRFTISRDNAKNTVYLQMNSLKPEDTAVYYCAAALGVLVLAPGNVYSYWGQGTQVTVSSGGGGSGGGGSEVQLVESGGGLVQPGGSLRLSCAASGFTISTNAMSWVRQAPGKGLEWIGVITGRDITYYASWAKGRFTISRDNSKNTLYLQMSSLRSEDTAVYYCARDGGSSAITSNNIWGQGTLVTVSSASTKGPSVFPLAPSSKSTSGGTAALGCLVKDYFPEPVTVSWNSGALTSGVHTFPAVLQSSGLYSLSSVVTVPSSSLGTQTYICNVNHKPSNTKVDKRVEPKSCDKTHTCPPCPAPEAAGGPSVFLFPPKPKDTLMISRTPEVTCVVVDVSHEDPEVKFNWYVDGVEVHNAKTKPREEQYNSTYRVVSVLTVLHQDWLNGKEYKCAVSNKALPAPIEKTISKAKGQPREPQVYTLPPSRDELTKNQVSLSCAVKGFYPSDIAVEWESNGQPENNYKTTPPVLDSDGSFFLVSKLTVDKSRWQQGNVFSCSVMHEALHNHYTQKSLSLSPG chain 2: QVQLVQSGGGLVQAGGSLSLSCAFSGRTFSMYTMGWFRQAPGKEREFVAANRGRGLSPDIADSVNGRFTISRDNAKNTLYLQMDSLKPEDTAVYYCAADLQYGSSWPQRSSAEYDYWGQGTTVTVSSGGGGSGGGGSDVVMTQSPSTLSASVGDRVTINCQASESISSWLAWYQQKPGKAPKLLIYEASKLASGVPSRFSGSGSGTEFTLTISSLQPDDFATYYCQGYFYFISRTYVNSFGGGTKVEIKRTVAAPSVFIFPPSDEQLKSGTASVVCLLNNFYPREAKVQWKVDNALQSGNSQESVTEQDSKDSTYSLSSTLTLSKADYEKHKVYACEVTHQGLSSPVTKSFNRGECGGDKTHTCPPCPAPEAAGGPSVFLFPPKPKDTLMISRTPEVTCVVVDVSHEDPEVKFNWYVDGVEVHNAKTKPREEQYNSTYRVVSVLTVLHQDWLNGKEYKCAVSNKALPAPIEKTISKAKGQPREPQVYTLPPSRDELTKNQVSLWCLVKGFYPSDIAVEWESNGQPENNYKTTPPVLDSDGSFFLYSKLTVDKSRWQQGNVFSCSVMHEALHNRFTQKSLSLSPG | – | – | – | – | 7.68 nM | 26.3 nM | 51.5 nM |
| SI-75X17 (other, tri-miniGNC; D1 αEGFR VHH, D2 αHER3 VHH, D3 αCD3* (Fab)) chain 1: EVQLQESGGGLVQAGDSLSLSCLVSGRSFNSYTMGWFRQAPGKEREFVAAILWSGPTTYYADSVKGRFTISRDNAKNTVYLQMNSLKPEDTAVYYCAAALGVLVLAPGNVYSYWGQGTQVTVSSGGGGSGGGGSQVQLQESGGRLVQPGEPLSLTCKTSGIDLSSNAIGWVRQAPGKGLEWIGVIFGSGNTYYASWAKGRFTISRSTSTVYLKMNSLRSEDTAIYYCARGGYSSDIWGQGTLVTVSSASTKGPSVFPLAPSSKSTSGGTAALGCLVKDYFPEPVTVSWNSGALTSGVHTFPAVLQSSGLYSLSSVVTVPSSSLGTQTYICNVNHKPSNTKVDKRVEPKSCDKTHTCPPCPAPEAAGGPSVFLFPPKPKDTLMISRTPEVTCVVVDVSHEDPEVKFNWYVDGVEVHNAKTKPREEQYNSTYRVVSVLTVLHQDWLNGKEYKCAVSNKALPAPIEKTISKAKGQPREPQVYTLPPSRDELTKNQVSLSCAVKGFYPSDIAVEWESNGQPENNYKTTPPVLDSDGSFFLVSKLTVDKSRWQQGNVFSCSVMHEALHNHYTQKSLSLSPG chain 2: QVQLVQSGGGLVQAGGSLSLSCAFSGRTFSMYTMGWFRQAPGKEREFVAANRGRGLSPDIADSVNGRFTISRDNAKNTLYLQMDSLKPEDTAVYYCAADLQYGSSWPQRSSAEYDYWGQGTTVTVSSGGGGSGGGGSDPQLTQSPSSLSATVGQRVTINCQSSQSVAKNNNLAWFQQKPGKPPKLLIYSASTLAAGVPSRFSGSGSGTQFTLTITRVQSEDFATYYCSARDSGNIQSFGGGTRVEIKRTVAAPSVFIFPPSDEQLKSGTASVVCLLNNFYPREAKVQWKVDNALQSGNSQESVTEQDSKDSTYSLSSTLTLSKADYEKHKVYACEVTHQGLSSPVTKSFNRGECGGDKTHTCPPCPAPEAAGGPSVFLFPPKPKDTLMISRTPEVTCVVVDVSHEDPEVKFNWYVDGVEVHNAKTKPREEQYNSTYRVVSVLTVLHQDWLNGKEYKCAVSNKALPAPIEKTISKAKGQPREPQVYTLPPSRDELTKNQVSLWCLVKGFYPSDIAVEWESNGQPENNYKTTPPVLDSDGSFFLYSKLTVDKSRWQQGNVFSCSVMHEALHNRFTQKSLSLSPG | – | – | – | – | 4.58 nM | 68 nM | 14.8 nM |
| SI-75X19 (other, tri-miniGNC; D3 αCD3* (Fab), D4 αEGFR VHH, D5 αHER3 VHH) chain 1: QVQLQESGGRLVQPGEPLSLTCKTSGIDLSSNAIGWVRQAPGKGLEWIGVIFGSGNTYYASWAKGRFTISRSTSTVYLKMNSLRSEDTAIYYCARGGYSSDIWGQGTLVTVSSASTKGPSVFPLAPSSKSTSGGTAALGCLVKDYFPEPVTVSWNSGALTSGVHTFPAVLQSSGLYSLSSVVTVPSSSLGTQTYICNVNHKPSNTKVDKRVEPKSCDKTHTCPPCPAPEAAGGPSVFLFPPKPKDTLMISRTPEVTCVVVDVSHEDPEVKFNWYVDGVEVHNAKTKPREEQYNSTYRVVSVLTVLHQDWLNGKEYKCAVSNKALPAPIEKTISKAKGQPREPQVYTLPPSRDELTKNQVSLSCAVKGFYPSDIAVEWESNGQPENNYKTTPPVLDSDGSFFLVSKLTVDKSRWQQGNVFSCSVMHEALHNHYTQKSLSLSPGGGGGSGGGGSEVQLQESGGGLVQAGDSLSLSCLVSGRSFNSYTMGWFRQAPGKEREFVAAILWSGPTTYYADSVKGRFTISRDNAKNTVYLQMNSLKPEDTAVYYCAAALGVLVLAPGNVYSYWGQGTQVTVSS chain 2: DPQLTQSPSSLSATVGQRVTINCQSSQSVAKNNNLAWFQQKPGKPPKLLIYSASTLAAGVPSRFSGSGSGTQFTLTITRVQSEDFATYYCSARDSGNIQSFGGGTRVEIKRTVAAPSVFIFPPSDEQLKSGTASVVCLLNNFYPREAKVQWKVDNALQSGNSQESVTEQDSKDSTYSLSSTLTLSKADYEKHKVYACEVTHQGLSSPVTKSFNRGECGGDKTHTCPPCPAPEAAGGPSVFLFPPKPKDTLMISRTPEVTCVVVDVSHEDPEVKFNWYVDGVEVHNAKTKPREEQYNSTYRVVSVLTVLHQDWLNGKEYKCAVSNKALPAPIEKTISKAKGQPREPQVYTLPPSRDELTKNQVSLWCLVKGFYPSDIAVEWESNGQPENNYKTTPPVLDSDGSFFLYSKLTVDKSRWQQGNVFSCSVMHEALHNRFTQKSLSLSPGGGGGSGGGGSQVQLVQSGGGLVQAGGSLSLSCAFSGRTFSMYTMGWFRQAPGKEREFVAANRGRGLSPDIADSVNGRFTISRDNAKNTLYLQMDSLKPEDTAVYYCAADLQYGSSWPQRSSAEYDYWGQGTTVTVSS | – | – | – | – | 10.5 nM | 64.4 nM | 20.6 nM |

Source: patent publication US20230114801A1 (SYSTIMMUNE, published 2023)
